This is an account of results in publication PMC5078831.

The test deals with Coxsackie B–Adenovirus Receptor (CAR), human, of 293 cells (human (endogenous in 293)) (UniProt P78310). In words: ELISA; virus attachment assay: cells on 96-well plates, biotinylated AdV5 (MOI=100 virus particles per cell) for 90 min on ice (4 °C) or at 37 °C, washed, fixed with 3 % paraformaldehyde, streptavidin-HRP; anti-CAR antibodies blocked 95–98 % of the signal (data not shown). On the technique in general: In an ELISA, binding on a coated surface is turned into a signal by an enzyme label.
UniProt P78310, sequence (P78310 20-365): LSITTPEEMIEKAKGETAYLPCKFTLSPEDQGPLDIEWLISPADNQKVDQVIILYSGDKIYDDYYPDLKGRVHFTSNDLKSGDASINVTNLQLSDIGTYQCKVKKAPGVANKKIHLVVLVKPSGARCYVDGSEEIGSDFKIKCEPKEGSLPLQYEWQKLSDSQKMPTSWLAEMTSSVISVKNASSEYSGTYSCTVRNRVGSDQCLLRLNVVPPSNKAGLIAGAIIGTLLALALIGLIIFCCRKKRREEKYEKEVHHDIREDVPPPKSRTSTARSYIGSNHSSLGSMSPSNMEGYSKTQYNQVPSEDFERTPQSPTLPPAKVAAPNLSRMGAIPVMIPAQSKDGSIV

In the case of “biotinylated AdV5-GFP virus particles (complex)”, the percent of the virus attached to cells was greater than 60%.
